US20190183966A1 (EXTEND BIOSCIENCES, published 2019)

T1: PTH1 receptor expressed on mammalian cells (UniProt Q03431 27-593, limits assumed)
T1 sequence (looked up): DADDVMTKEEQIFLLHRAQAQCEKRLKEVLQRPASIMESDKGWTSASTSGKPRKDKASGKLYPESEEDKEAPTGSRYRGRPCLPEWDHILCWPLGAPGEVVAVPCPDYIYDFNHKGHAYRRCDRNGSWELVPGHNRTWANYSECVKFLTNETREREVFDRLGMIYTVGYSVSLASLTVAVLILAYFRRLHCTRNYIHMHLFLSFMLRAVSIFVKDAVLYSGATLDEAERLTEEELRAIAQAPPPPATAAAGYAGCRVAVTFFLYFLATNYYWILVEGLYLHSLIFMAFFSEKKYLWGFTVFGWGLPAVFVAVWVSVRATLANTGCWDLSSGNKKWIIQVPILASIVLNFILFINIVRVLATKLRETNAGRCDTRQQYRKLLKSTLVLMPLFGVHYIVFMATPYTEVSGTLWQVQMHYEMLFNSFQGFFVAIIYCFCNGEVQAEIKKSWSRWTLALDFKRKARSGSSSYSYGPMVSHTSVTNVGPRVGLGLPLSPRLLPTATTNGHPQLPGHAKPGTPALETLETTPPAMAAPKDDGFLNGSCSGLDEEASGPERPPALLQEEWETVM

B1: PTH-C-PEG2K-(3)-VitD (peptide)
peptide: SVSEIQLMHNLGKHLNSMERVEWLRKKLQDVHNFC
modifications: C-terminal cysteine thiol conjugated to VitD-(3)-PEG2K-maleimide carrier
B2: GLP-1-C-PEG2K-(25)-VitD (peptide)
peptide: HAEGTFTSDVSSYLEGQAAKEFIAWLVKGRGC
modifications: C-terminal cysteine thiol conjugated to VitD-(25)-PEG2K-maleimide carrier
B3: GLP-1-C-PEG2K-(3)-VitD (peptide)
peptide: B2 peptide
modifications: C-terminal cysteine thiol conjugated to VitD-(3)-PEG2K-maleimide carrier

Experiments:
[1] = target: T1, PTH1 receptor expressed on mammalian …; test: cell-based or functional assay
[2] = target: human GLP-1 receptor (GLP1R) stably expressed on PathHunter cells (human, UniProt P43220 24-463); test: cell-based or functional assay

Row | Binder | Calcium EC50 [1] [nM] | cAMP EC50 [1] [nM] | EC50, recruitment of beta-Arrestin [2] [nM]
1 | B1 | 14 | 0.0186 | –
2 | B2 | – | – | 510
3 | B3 | – | – | 520
